Values quoted from earlier work as cited in publication PMC2949527.

Biological target: RFX5(25-90)2·RFXAP(214-272) complex 25-90 + 214-272 (Homo sapiens) (UniProt P48382)
Sequence (P48382 2-616, chain 1 of 2): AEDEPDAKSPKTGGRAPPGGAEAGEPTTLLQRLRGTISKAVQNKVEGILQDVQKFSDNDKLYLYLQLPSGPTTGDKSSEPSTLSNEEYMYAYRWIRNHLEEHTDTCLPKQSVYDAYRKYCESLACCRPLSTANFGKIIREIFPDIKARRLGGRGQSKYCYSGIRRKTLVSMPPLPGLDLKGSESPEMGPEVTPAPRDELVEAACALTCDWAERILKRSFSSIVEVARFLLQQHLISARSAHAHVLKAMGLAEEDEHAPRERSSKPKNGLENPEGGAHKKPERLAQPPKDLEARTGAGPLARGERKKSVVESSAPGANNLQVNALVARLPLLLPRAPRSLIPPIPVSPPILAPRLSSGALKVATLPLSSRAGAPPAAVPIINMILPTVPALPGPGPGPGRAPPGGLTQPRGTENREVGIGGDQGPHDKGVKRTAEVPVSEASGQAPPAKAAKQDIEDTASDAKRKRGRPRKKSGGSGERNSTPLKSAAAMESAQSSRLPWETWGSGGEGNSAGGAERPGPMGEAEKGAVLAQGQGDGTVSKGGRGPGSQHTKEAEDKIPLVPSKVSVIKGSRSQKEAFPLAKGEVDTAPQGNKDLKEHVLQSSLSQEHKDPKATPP
Sequence (O00287 whole entry, chain 2 of 2, further chain): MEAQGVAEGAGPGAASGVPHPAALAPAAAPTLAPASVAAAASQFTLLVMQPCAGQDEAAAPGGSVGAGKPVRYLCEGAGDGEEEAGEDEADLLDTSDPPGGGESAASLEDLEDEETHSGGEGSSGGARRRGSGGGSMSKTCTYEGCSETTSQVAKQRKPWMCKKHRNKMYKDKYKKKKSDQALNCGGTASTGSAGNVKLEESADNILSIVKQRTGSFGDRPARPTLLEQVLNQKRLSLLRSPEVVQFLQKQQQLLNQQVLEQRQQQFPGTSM

Chain of RFXB (O14593 whole entry): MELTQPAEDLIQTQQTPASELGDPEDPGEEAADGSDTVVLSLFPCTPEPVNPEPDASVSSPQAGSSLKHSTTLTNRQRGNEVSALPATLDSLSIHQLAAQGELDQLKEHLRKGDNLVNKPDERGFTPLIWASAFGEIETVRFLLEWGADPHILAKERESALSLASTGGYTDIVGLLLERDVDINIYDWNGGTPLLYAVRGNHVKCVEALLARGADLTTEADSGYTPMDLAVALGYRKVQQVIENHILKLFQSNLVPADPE

- Kd: 0.076 µM
Substance: RFXB (from UniProt O14593)
